In patent US20080014191A1:

Legend:
[1] = target: wild-type cystic fibrosis transmembrane conductance regulator (CFTR) (Homo sapiens (Human)) (UniProt P13569); assay: CFTR co-IP, MudPIT MS; BHK wt
[2] = target: ΔF508 CFTR (Homo sapiens (Human)) (UniProt P13569); assay: CFTR co-IP, MudPIT MS; BHK ΔF508
[3] = target: ΔF508 CFTR (Homo sapiens (Human)) (UniProt P13569); assay: CFTR co-IP, MudPIT MS; ΔF508
[4] = target: wild-type cystic fibrosis transmembrane conductance regulator (CFTR) (Homo sapiens (Human)) (UniProt P13569); assay: CFTR co-IP, MudPIT MS; cell line not stated

Sequence of ΔF508 CFTR (Homo sapiens (Human)) (P13569 other isoform, or with tags, fused parts or gaps mutant limits assumed): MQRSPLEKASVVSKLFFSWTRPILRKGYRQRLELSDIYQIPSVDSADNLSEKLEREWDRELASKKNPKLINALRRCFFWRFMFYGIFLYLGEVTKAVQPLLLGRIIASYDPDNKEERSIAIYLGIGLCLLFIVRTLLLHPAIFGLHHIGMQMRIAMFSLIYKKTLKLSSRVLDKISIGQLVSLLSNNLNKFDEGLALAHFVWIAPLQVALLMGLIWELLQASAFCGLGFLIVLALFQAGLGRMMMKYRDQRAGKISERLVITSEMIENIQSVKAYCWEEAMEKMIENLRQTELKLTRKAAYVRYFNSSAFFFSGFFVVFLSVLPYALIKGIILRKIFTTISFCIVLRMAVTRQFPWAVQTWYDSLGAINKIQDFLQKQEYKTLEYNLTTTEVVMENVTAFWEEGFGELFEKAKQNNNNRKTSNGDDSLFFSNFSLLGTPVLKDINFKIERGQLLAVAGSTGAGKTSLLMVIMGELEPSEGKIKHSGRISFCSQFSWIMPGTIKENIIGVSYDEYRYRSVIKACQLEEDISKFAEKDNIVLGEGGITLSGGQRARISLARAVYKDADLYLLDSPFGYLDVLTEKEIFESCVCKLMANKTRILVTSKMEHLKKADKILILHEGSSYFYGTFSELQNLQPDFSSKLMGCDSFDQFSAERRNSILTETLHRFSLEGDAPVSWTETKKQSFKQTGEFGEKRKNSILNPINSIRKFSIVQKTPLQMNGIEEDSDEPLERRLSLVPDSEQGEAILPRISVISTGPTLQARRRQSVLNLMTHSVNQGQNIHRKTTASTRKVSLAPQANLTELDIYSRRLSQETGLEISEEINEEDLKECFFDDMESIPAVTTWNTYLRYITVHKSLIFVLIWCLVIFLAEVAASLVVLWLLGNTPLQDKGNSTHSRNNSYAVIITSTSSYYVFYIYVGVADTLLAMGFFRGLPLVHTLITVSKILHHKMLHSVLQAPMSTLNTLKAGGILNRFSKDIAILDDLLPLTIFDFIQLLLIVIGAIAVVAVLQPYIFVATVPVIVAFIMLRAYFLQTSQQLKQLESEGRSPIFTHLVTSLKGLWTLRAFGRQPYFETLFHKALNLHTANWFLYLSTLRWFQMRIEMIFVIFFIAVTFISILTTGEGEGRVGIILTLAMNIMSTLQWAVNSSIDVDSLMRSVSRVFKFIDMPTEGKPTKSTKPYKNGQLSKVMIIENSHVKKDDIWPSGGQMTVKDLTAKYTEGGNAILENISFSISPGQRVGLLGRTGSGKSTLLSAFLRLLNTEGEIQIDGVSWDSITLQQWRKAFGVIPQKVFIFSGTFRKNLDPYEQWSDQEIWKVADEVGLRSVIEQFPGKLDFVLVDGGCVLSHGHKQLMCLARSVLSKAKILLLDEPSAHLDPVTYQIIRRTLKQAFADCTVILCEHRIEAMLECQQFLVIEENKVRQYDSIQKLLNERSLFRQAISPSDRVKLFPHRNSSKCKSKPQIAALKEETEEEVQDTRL
Sequence of wild-type cystic fibrosis transmembrane conductance regulator (CFTR) (Homo sapiens (Human)) (P13569 whole entry): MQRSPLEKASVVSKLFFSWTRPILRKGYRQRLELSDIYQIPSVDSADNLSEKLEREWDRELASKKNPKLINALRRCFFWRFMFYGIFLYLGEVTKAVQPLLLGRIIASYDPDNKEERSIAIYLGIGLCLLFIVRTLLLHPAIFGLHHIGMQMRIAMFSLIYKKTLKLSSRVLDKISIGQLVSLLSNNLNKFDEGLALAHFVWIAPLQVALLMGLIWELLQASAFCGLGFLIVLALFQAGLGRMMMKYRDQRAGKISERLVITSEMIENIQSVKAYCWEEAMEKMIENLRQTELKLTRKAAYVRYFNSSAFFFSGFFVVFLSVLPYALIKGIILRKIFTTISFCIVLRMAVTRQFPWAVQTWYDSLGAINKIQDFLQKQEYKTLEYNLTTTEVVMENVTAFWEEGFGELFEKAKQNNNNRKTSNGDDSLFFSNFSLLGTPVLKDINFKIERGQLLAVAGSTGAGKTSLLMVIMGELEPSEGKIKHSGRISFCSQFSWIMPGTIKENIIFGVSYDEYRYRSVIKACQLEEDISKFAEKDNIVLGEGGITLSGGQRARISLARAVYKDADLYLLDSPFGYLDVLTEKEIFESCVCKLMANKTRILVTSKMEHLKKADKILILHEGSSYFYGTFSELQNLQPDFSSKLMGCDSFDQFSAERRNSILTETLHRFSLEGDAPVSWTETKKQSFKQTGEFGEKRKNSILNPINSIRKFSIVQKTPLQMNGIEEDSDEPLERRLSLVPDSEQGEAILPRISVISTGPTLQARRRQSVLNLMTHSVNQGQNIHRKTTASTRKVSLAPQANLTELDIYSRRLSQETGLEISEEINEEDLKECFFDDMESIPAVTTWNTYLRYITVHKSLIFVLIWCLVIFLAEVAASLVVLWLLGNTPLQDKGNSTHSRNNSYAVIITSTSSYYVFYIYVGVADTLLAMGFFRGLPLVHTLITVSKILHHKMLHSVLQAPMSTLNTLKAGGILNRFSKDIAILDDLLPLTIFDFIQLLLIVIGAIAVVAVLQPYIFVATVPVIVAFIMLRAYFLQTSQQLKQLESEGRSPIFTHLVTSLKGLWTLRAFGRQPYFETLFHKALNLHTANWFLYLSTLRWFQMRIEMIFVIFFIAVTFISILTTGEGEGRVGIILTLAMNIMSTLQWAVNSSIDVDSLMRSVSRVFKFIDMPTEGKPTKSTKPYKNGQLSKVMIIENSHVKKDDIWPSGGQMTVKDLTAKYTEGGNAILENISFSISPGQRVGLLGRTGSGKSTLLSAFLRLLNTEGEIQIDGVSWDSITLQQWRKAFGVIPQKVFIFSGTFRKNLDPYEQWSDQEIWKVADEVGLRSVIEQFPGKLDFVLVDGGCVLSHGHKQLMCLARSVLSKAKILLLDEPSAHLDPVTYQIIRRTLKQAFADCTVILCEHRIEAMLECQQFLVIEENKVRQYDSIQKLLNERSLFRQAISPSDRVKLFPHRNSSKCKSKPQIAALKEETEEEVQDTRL

% sequence coverage [1]	total spectra [1]	unique spectra [1]	% sequence coverage [2]	total spectra [2]	unique spectra [2]	% sequence coverage [4]	total peptide spectra [4]	unique peptide spectra [4]	Substance	other results
–	–	–	16%	2 spectra	2 spectra	–	–	–	p23 (from UniProt Q15185 1-160)	–
–	–	–	17%	5 spectra	4 spectra	–	–	–	FKBP38 (from UniProt O35465 1-402)	–
–	–	–	8%	3 spectra	2 spectra	–	–	–	Cdc37 (from UniProt Q61081 1-379)	–
–	–	–	–	–	–	5%	2 spectra	2 spectra	sorting nexin 9 (from UniProt Q9Y5X1 1-595)	–
–	–	–	34%	40 spectra	23 spectra	–	–	–	GRP75 (from UniProt P38647 47-679)	–
8%	17 spectra	7 spectra	16%	57 spectra	23 spectra	–	–	–	Hsp70-2 (from UniProt P54652 1-639)	–
–	–	–	10%	6 spectra	5 spectra	–	–	–	Hsp105 (from UniProt Q61699 2-858)	–
28%	16 spectra	6 spectra	32%	19 spectra	9 spectra	–	–	–	Hsp40-A2 (Hdj3) (from UniProt O60884 1-409)	–
–	–	–	–	–	–	5%	2 spectra	2 spectra	βCOP (from UniProt P53618 2-953)	–
–	–	–	–	–	–	2%	2 spectra	2 spectra	CLCA1 (from UniProt A8K7I4 22-914)	–
50%	19 spectra	14 spectra	27%	8 spectra	5 spectra	–	–	–	Reticulocalbin (from UniProt Q05186 24-325)	–
–	–	–	11%	4 spectra	4 spectra	–	–	–	Hsc-Hsp70/Hsp90 organizing protein (HOP) (from UniProt Q60864 1-543)	–

Second part, the substance before the results:

Substance	% sequence coverage [1]	total spectra [1]	unique spectra [1]	% sequence coverage [2]	total spectra [2]	unique spectra [2]	% sequence coverage [4]	total peptide spectra [4]	unique peptide spectra [4]	other results
Calumenin (from UniProt O43852 20-315)	7%	3 spectra	3 spectra	–	–	–	–	–	–	–
BAG-3 (from UniProt Q9JLV1 2-577)	–	–	–	12%	5 spectra	4 spectra	–	–	–	–
Hsc70 (from UniProt P63018 2-646)	48%	132 spectra	39 spectra	–	–	–	–	–	–	–
proteasome 26S, ATPase 3 (from UniProt O88685 1-442)	–	–	–	–	–	–	–	–	–	% sequence coverage [3]: 8%; total peptide spectra [3]: 3 spectra; unique peptide spectra [3]: 2 spectra
Reticulocalbin 2 (from UniProt Q8BP92 26-320)	22%	12 spectra	6 spectra	9%	4 spectra	3 spectra	–	–	–	–
clathrin, light chain (from UniProt O08585 1-235)	–	–	–	–	–	–	13%	11 spectra	3 spectra	–
RalBP1 associated Eps domain containing protein (Reps1) (from UniProt O54916 1-795)	–	–	–	–	–	–	6%	2 spectra	2 spectra	–
sorting nexin 4 (from UniProt O95219 1-450)	–	–	–	–	–	–	3%	5 spectra	3 spectra	–
DnaJ-like protein (from UniProt P63036 1-394)	–	–	–	34%	35 spectra	11 spectra	–	–	–	–
Hsp40-A1 (Hdj2) (from UniProt P31689 1-394)	40%	25 spectra	13 spectra	31%	33 spectra	10 spectra	–	–	–	–
VPS 4A (from UniProt Q9UN37 1-437)	–	–	–	–	–	–	5%	2 spectra	2 spectra	–
flotillin 2 (from UniProt Q60634 2-428)	–	–	–	–	–	–	5%	2 spectra	2 spectra	–
ARF4 (from UniProt P61750 2-180)	–	–	–	–	–	–	16%	4 spectra	2 spectra	–
Hsp90β (from UniProt P11499 2-724)	21%	18 spectra	11 spectra	36%	49 spectra	24 spectra	–	–	–	–
cyclophilin B (from UniProt P23284 34-216)	–	–	–	13%	2 spectra	2 spectra	–	–	–	–
TCP1 (from UniProt P11983 1-556)	9%	5 spectra	3 spectra	10%	5 spectra	3 spectra	–	–	–	–
VCP (RefSeq NM_009503) (from UniProt Q01853 2-806)	–	–	–	–	–	–	7%	2 spectra	2 spectra	–
GRP78 (from UniProt P20029 20-655)	33%	37 spectra	17 spectra	40%	85 spectra	30 spectra	–	–	–	–
proteasome, beta type, 3 (from UniProt P49720 2-205)	–	–	–	–	–	–	–	–	–	% sequence coverage [3]: 24%; total peptide spectra [3]: 3 spectra; unique peptide spectra [3]: 3 spectra
proteasome 26S, ATPase, 4 (from UniProt P43686 1-418)	–	–	–	–	–	–	–	–	–	% sequence coverage [3]: 12%; total peptide spectra [3]: 3 spectra; unique peptide spectra [3]: 2 spectra
Hsp70-1A (from UniProt P0DMV8 2-641)	8%	6 spectra	4 spectra	19%	20 spectra	12 spectra	–	–	–	–
sortilin-related receptor L (SORL1) (from UniProt Q92673 82-2214)	–	–	–	–	–	–	1%	12 spectra	1 spectra	–
disabled homolog 2 (Dab2) (from UniProt P98078 2-766)	–	–	–	–	–	–	5%	3 spectra	3 spectra	–
Hsp90, alpha (from UniProt P07900 2-732)	6%	5 spectra	4 spectra	39%	37 spectra	24 spectra	–	–	–	–
Aha1, activator of heat shock 90 kDa protein ATPase homolog 1 (from UniProt O95433 1-338)	34%	20 spectra	10 spectra	15%	15 spectra	7 spectra	–	–	–	–
Hsp70B′ (from UniProt P17066 1-643)	3%	5 spectra	3 spectra	10%	14 spectra	8 spectra	–	–	–	–
BAG-2 (from UniProt O95816 2-211)	10%	2 spectra	2 spectra	28%	20 spectra	7 spectra	–	–	–	–
enthoprotin (from UniProt Q14677 1-625)	–	–	–	–	–	–	9%	5 spectra	4 spectra	–
